18 sequences from the DeepSol protein solubility set can be followed below.

The nature of the series: soluble on expression in E. coli; label from the status in PepcDB or PDB records.
On to “MAHHHHHHMLKKGFTATKIIGKRCFQWWDNLNTSWKFAIGFSVLFPPLWNYNERRKAREKQVYYNKSIKDYVFFDIAIENKYVGRVLIGLYSDQVPLSVENFIQLAEGYKVKDKYIGYRNTFIHKIYPGIGLVGGNVLNDKEGLSIYGKKFPDENFDMEFVQDGDVALFNEGPHSNSSQFIITFSPMPILHKHNVVIGTVLKGMDIIRMIENVGTKLGNPMYNVKIINCGLYRSLEQDGPPFFNMLHISDKGNKNIISKKEFENLSEQQRQSLMEEIGKSEKQR”, for which the “soluble on expression in E. coli” value is “not soluble”. Take “GISVDKRIEQATSDFLAAAQAIDLQEHLISGYRSVDYQTELYQSYIKKEMANDPTLTQEAAEALVQTYSQPPGASEHHTGLAIDMSTVDTLNASDPSVAKAVQKIAPDYGFVLRFPEGKKTSTGVDYEDWHYRYVGKASARYMAQHNLTLEEYIAALKEKR”: the “soluble on expression in E. coli” value was “not soluble”. In the case of “MIERSLNATEKAIESIREGELVRRHTDLELRDMQISMNEDFDRIRGMMHELDEQIHKDRSGNSKWMNQKMEKAKATADQALASTLMVKDVQLLEKKVNILKESVVQVNKSFYKYEKDVDMNDLMDQVIDMVHRTEKKEQDALEAHATDEQAIGKAFRGAIEGLYGLKSSNSKVMEEAKLLAGEMRVFRDAASNKNFHTMISRIASNTATSGVPLKYSSGPESSFSTSAYTSFSKSANNSSMSGSN” it was “not soluble”.

Turning to “GSHMNPLTQAVPKCQRWEKLQNSRCVCKMPYECGPSLDVCAQDERSKRILPLTVCKMHVLHCQGRNYTLTGRDSCTLPASAEKACGACPLWGKCDAESSKCVCREASECEEEGFSICVEVNGKEQTMSECEAGALRCRGQSISVTSIRPCAAETQ”, the “soluble on expression in E. coli” value is on record as “soluble”. In the case of “MTEPKEERRERRMSSPIMPENMSDFDLIVGEIEAENGAEGSFQRAAECFKLIEDRVSEDPDLSEIMENIRMNQGCEVSGMSTGLSSTATTVSSKMASQWISHMKRSFKRRAICLSEEQQSAMRKMVTEELYTQHGPADLAVRDILLLYSRGLEAHHDGRYREMFERLRPCIPYFNTNVLVWIRISEALIYEYYEETWEFNDIYDRLFEKQPHHYMPSVRRRCNEMRPRHPDMTLRFAETATLMCFALAKQSSREPVHYAAAALHGFMLLKLRKYSEAIEAVNFAVERYDRAGEWQDDLAILLTYKAEGMIGIGRYNRAIEYALRVMNAAKCARARQRATMLVVMAYMRKRNYLKAHEYVIKLLKEGKLDEVMLENVALLGLNLAHLMGNMKLFKRFESMLQRIVY” it was “not soluble”; in that of “MGKWRYLAIGVCLMTTSGVTFADSLDAQRQRYQQVKLAWDSNQMDTVAQLMPTLRDYPLYPYLEYRQLTQDLSQVSTAQVKDFLNRHPTLPPAKSLPSRFVNELARREDWRGLLTFSPTAPKPVAARCNYYYAKWATGEQSVAWEGASEIWLNGQSLPGSCDKLFSVWQQAGHQTPLATLARMKLALKEGNASLVSYLLKQLPADYQTMGTALAKLQSDPSSVESFARTVGPTDFTRSATTIAFTRLARQDVENARLMIPSLVRLQKMSDSEKLELEEAVAWRLMGNDATYEQAKWRDQVALRSHSTSLLERRIRMSLGSGDRQGLATWLARLPAEAQDKDEWRYWRASLLLEQGKKAEGEAILRSLTKERGFYPMVAAQKLNIPYPIKVQVAAKPDVSLAQRPEIARVRELMYWNMDNQARAEWSYLVASRSKAEQEALARYAFDQKWADLSVQATIVAKLWDHLEERFPMAWTKEFRQFTEDKGITPSYAMAIARQESAWNPKAQSPVGATGLMQVMPRTAEHTVKRNNIAGYLNSSQLLDPVTNIEIGTYYLEEVYQQFGRNRILSSAAYNAGPSRVNTWLGNSGGQVDAVAFIESIPFSETRGYVKNVLAYDAFYRHFMNRPAKVLSDAEWQRRY”, “soluble”; in that of “MTIAQQERPVAASPYRFEAEMTSGLERVAAHHHDLTLTSVFQPIFSLSHMRAVGYEALLRAHDALDRPVSPLDVFGEAARHGEAAQVDRLAQALHLENFARFGAEREWLFLNVHPGVLTDPFQAAALFANLKRLEIPPRRIVLEVLEQRADDIERLADAVREFREQGFLIALDDFGAGHSNIERIWQLNPDIVKLDRIMLSHAQHRAGLTAILHGLVTLLHEAGKLVLIEGIETEHEAQIALACDADFVQGHFFGRPAPGLPDGAAASACIGELTERYRQQAEASERRDAQRLAPYQRAFERAAERLAAGEPLDEVCWNFLALDHAARCFLLDERGRQAGRNVVRRADRARHETRFLPLADAQGANWLRRPYFRSAIAAPGRVQATRPYLSINEALPCVTLSIAVRVHDALCVLCGDIDWIDDEASMSA”, “soluble”.

As for “MGSDKIHHHHHHMSKTKEQVVELAQKHGITIQEGSLILNESGLDFQVVFALDVNGKRWVLRLPRREDVVPSTAKEKKTLELIAPHLSVQVPNWEVYSVEMIAYKQLKGVPAATIDHGKKAYVWEMDHTNVSDRFIDTLASGMASLHQIKQDEARRAGVPAEQATEARERMSVRMEKVKSEFGVSEPLWARWQKWLHHDALWPAETGLVHGDLHAGHILIGEQTEVTGFIDWTEAQVTDLSEDFVPHYRIFGEAALNRLIAAYEEAGGYVWPSMKEHVIEREAAFPVAIAEFALKSGIGEYKRMAKEVLGVAE”, the “soluble on expression in E. coli” value was “not soluble”.

Take “MKLTVVGLGYIGLPTSIMFAKHGVDVLGVDINQQTIDKLQSGQISIEEPGLQEVYEEVLSSGKLKVSTTPDASDVFIIAVPTPNNDDQYRSCDISLVMRALDSILSFLEKGNTIIVESTIAPKTMDDFVKPVIENLGFTIGEDIYLVHCPERVLPGKILEELVHNNRIIGGVTEACIEAGKRVYRTFVQGEMIETDARTAEMSKLMENTYRDVNIALANELTKICNNLNINVLDVIEMANKHPRVNIHQPGPGVGGHCLAVDPYFIIAKDPENAKLIQTGREINNSMPAYVVDTTKQIIKVLSGNKVTVFGLTYKGDVDDIRESPAFDIYELLNQEPDIEVCAYDPHVELDFVEHDMSHAVKDASLVLILSDHSEFKNLSDSHFDKMKHKVIFDTKNVVKSSFEDVSYYNYGNIFNFIDK”: the “soluble on expression in E. coli” value was “not soluble”. In the case of “MGSDKIHHHHHHMKPIDQITSWMQEALRPYFGLEPLSAEWDILTVRDGYFICFDGDTIRKRITATELNYQEEDVIIQTSEREVVLPRTARGKEKKLTYTSVSSVMADGIVFSAGIRTLNSGRYGYINVSNYRNSIRLPLPECRDLASKGEIVEWLQSYRERVPADYAHKLERLMHMKNRQHKTIPGDVFRVEIDLHTDGYVLVIGNLRQMQKDELFAEHSIWNDVMTMPLFVRPYLFRTTVRNPSLSEIVASPLSDKCWIVMDNAFLRGNYEYVGSKILAEEDILFPVGYGSSISAQKSDYRLSWGPNSISKASQDTGLKAGRSYMNNGAYSSVSADCFVDRGFPDWDKTLLNPEHLEAWEQVLAEFGFPPDTTYDAFAQRTDGMTRAAYLTYVAENKAYQRKGRAKKKGS” it was “not soluble”; in that of “MDNPCPTCGQELEWTGQYHCSACTVDYCKVGFCPECGSELEKLQACGAANYFCNQCNELKSKSKIRFVFQPLNGNSQLEHHHHHH”, “soluble”; in that of “VISCDDVPEDLETDHLFSSQMVAVVAPEHELAQREAITFDEFFEHELVMFQHGYFHREFLDHVSEEHGFSMKSSFETNLLPLILSIVRQEFAITALLELVTQNEKGVVGIPFHPPVTLDLALAWRKEGYLSIADRTFIDFVKRYV”, “not soluble”. In the case of “MNEFETLLNSVEDVKVRDVVKGEILSVENGQATVAIVGTGVEGVLTLREITNDKDADINTFVKPGDVLDLLVIKQIVGKEAEGANVYLLSLKRLEARKAWTQLEGKEGEIVTVKVTKDVKGGLSVDYNGVRGFIPASMIDTYFVKDTKKFVGEEIEAKIIEVNASENRFILSRRAVVEAEAIEMRKEAFAQLQEGDIVEGTVSRVTNFGAFVDLGGIDGLVHVSELSHSRIKRPSDAVKPGDVVNVKILKLDPEAGRLSLSLKATQPGPWEQVEEKAPVGSTVEGTVKRLTDFGAFVELYPGVEGLVHVSQISWERVENPKDVLKVGQVVNVKVLDVKPAEERISLSIKALEEAPARPARNNDNDGEKRDRKPRAPRKAAKPSYDLPETQEGFSLADFLGEDFDINDLLEHHHHHH”, the “soluble on expression in E. coli” value is reported as “soluble”.

Consider “MGSDKIHHHHHHMDIQNMPREQLGVCAEGNLHSVYLMFNANDNVESQLRPCIANVAQYIYELTDQYSDSAFNGFVAIGANYWDSLYPESRPEMLKPFPAMQEGNREAPAIEYDLFVHLRCDRYDILHLVANEISQMFEDLVELVEEERGFRFMDSRDLTGFVDGTENPKGRHRQEVALVGSEDPEFKGGSYIHVQKYAHNLSKWHRLPLKKQEDIIGRTKQDNIEYESEDKPLTSHIKRVNLKDENGKSIEILRQSMPYGSLKEQGLMFISTCRTPDHFEKMLHSMVFGDGAGNHDHLMHFTSALTGSSFFAPSLDFLMQFDN”, for which the “soluble on expression in E. coli” value is “not soluble”.

Turning to “MSLSVPRSGLSVQMAQPARPLRADAARNRARILGVAYEAFATEGLSVPIDEIARRAGVGAGTVYRHFPTKEALCAAVIGDRMPHLVDDGYVLLKSAGPGEALFTYLRSLVLHWGATDRGLVDALAGAGGIDILGVAPDAEDAFLTILSDLLYAAQYAGTARTDVGVREVKSILVGCQAMEAYNSALAERVTDVVVDGLRAAREGHHHHHH”, the “soluble on expression in E. coli” value is reported as “soluble”.

For “GMLTGKHVVIIGGDARQLEIIRKLSTFDAKISLVGFDQLDDGFIGVTKMRIDEVDWNTVDAILLPISGTNEAGKVDTIFSNESIVLTEEMIEKTPNHCVVYSGISNTYLNQCMKKTNRTLVKLMERDDIAIYNSIPTAEGTIMMAIQHTDFTIHGANVAVLGLGRVGMSVARKFAALGAKVKVGARESDLLARIAEMGMEPFHISKAAQELRDVDVCINTIPALVVTANVLAEMPSHTFVIDLASKPGGTDFRYAEKRGIKALLVPGLPGIVAPKTAGRILADVLVKLLAEPS”, the “soluble on expression in E. coli” value is reported as “soluble”. In the case of “MRRVTEAAIPDNDGDEQPPVIPRYDPTSNFDAQRAQQQHPQSRPVYSTPAQMIRTTQPGGVKHNVILMKASDGTQKMVLKPGQFPPGTVISTGQRVVPYRQPTAVQQRQLYTATPGTRVVRIPNANGGAPRQQDHQVMRRVVQASGPRAMEYMDDQGTPPPGQQVRYVLQGGNSGTPNVNPPKVSSRGGPRGGLTMQMVQQQQQHNPVLDVMFSQVCRWDRQYGWSKTHVKRARQKNDSDKMHLRKFRMNQRELLITDHMERLKKEINKRRTRMENEAEQQCGLLTPWRKARARPHRAAKPKAEVKKEVINPADITLGGDTYDYVKEQKPTESIATNVSRRRRTSANLSKSEDDRDKPESQSTAPKSKERRTSEPPASHVAFHTPGSATPHDINLSIEHCTCQKIFDASKLYIQCELCARWYHGDCVGVAEQTILGLEHWSCEECIEEQERVKDQPALYCVCQKPYDDTKFYVGCDSCQGWFHPECVGTTRAEAEQAADYNCPACTREAEGYESEASDVSGSSRVSVQLTRADYTHVFELLELLLEHRMSTPFRNPVDLNEFPDYEKFIKKPMDLSTITKKVERTEYLYLSQFVNDVNQMFENAKTYNPKGNAVFKCAETMQEVFDKKLIDVREQMTARQQMLLLATAQQQDPMSSIRKRVQSESQRTVDSLDIDSDQLLPLDANLMRLYDF” it was “not soluble”. The value for “MPAKVLINGYGSIGKRVADAVSMQDDMEVIGVTKTKPDFEARLAVEKGYKLFVAIPDNERVKLFEDAGIPVEGTILDIIEDADIVVDGAPKKIGKQNLENIYKPHKVKAILQGGEKAKDVEDNFNALWSYNRCYGKDYVRVVSCNTTGLCRILYAINSIADIKKARIVLVRRAADPNDDKTGPVNAITPNPVTVPSHHGPDVVSVVPEFEGKILTSAVIVPTTLMHMHTLMVEVDGDVSRDDILEAIKKTPRIITVRAEDGFSSTAKIIEYGRDLGRLRYDINELVVWEESINVLENEIFLMQAVHQESIVIPENIDCIRAMLQMEEDNFKSIEKTNKAMGIQ” was “soluble”.
